Substitutions are numbered along the chain they refer to.

Common to all, as to experiment: flow cytometry on CHO-K1 transfectants;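 also: Anti-hCD27 antibodies tested on transiently transfected CHO-K1 cells bearing hCD27 alanine mutants, 30 min at 4 °C primary incubation, FITC readout excluding debris, dead cells and doublets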
A general note: A flow cytometer gives signals particle by particle.

One experiment deals with T1, D32A.
T1 construct: also called hCD27 D32A
T1 receptor chain: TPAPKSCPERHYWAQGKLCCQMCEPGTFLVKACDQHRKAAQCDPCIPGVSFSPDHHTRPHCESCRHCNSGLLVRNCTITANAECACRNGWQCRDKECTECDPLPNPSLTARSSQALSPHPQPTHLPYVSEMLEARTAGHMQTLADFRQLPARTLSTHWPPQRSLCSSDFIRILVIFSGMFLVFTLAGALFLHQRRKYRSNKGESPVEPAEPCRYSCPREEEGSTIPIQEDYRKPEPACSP

For the next experiment, the target named is T2, R37A.
T2 construct: also called hCD27 R37A
T2 receptor chain: T1 receptor chain with A32D, R37A

The next experiment has as its target T3, W13A.
T3 construct: also called hCD27 W13A
T3 receptor chain: T1 receptor chain with W13A, A32D

Another experiment deals with T4, I46A.
T4 construct: also called hCD27 I46A
T4 receptor chain: T1 receptor chain with A32D, I46A

The next experiment has as its target T5, R93A.
T5 construct: also called hCD27 R93A
T5 receptor chain: T1 receptor chain with A32D, R93A

In the next experiment the target is T6, G16A.
T6 construct: also called hCD27 G16A
T6 receptor chain: T1 receptor chain with G16A, A32D

The target in a further experiment is T7, H36A.
T7 construct: also called hCD27 H36A
T7 receptor chain: T1 receptor chain with A32D, H36A

The next experiment addresses T8, P44A.
T8 construct: also called hCD27 P44A
T8 receptor chain: T1 receptor chain with A32D, P44A

The next experiment addresses T9, H60A.
T9 construct: also called hCD27 H60A
T9 receptor chain: T1 receptor chain with A32D, H60A

A further experiment concerns the target T10, E9A.
T10 construct: also called hCD27 E9A
T10 receptor chain: T1 receptor chain with E9A, A32D

Procedure for D32A: (§1) The hCD27 variants that were tested are listed. Amino acids correspond to the UniProt P26842-1 sequence. Amino acids 1-20 constitute the signal peptide. Binding is expressed as the geometric mean of the FITC signal, relative to antibody binding to hCD27, which was set at 100%.
(§2) The ability of several anti-hCD27 antibodies to bind to a series of hCD27 alanine mutants was determined using CHO-K1 cells, transiently transfected pCI-neo empty vector, pCI-neo.hCD27 and several pCI-neo.CD27Ala mutant constructs.
(§3) Detached cells were transferred to 96 wells round-bottomed well plates at approximately 1.2×10⁵ cells/well. After spinning down the cells, discarding the supernatants and re-suspending the cells in the residual volume, the primary antibodies were added and incubated for 30 minutes at 4° C. Cells were washed three times with DPBS/BSA 1%, followed by centrifugation, discarding of the supernatants and re-suspension in the residual volume. […] After washing once, antibody binding was detected using the HTS plate reader (FACS Canto II) and FlowJo software for data analysis. Debris, dead cells and doublets were excluded from the analysis. Binding was expressed as the geometric mean of the FITC signal, relative to antibody binding to hCD27, which was set at 100%.
Procedure for E9A: as §1, §2, §3
Procedure for G16A: as §1, §2, §3
Procedure for H36A: as §1, §2, §3
Procedure for H60A: as §1, §2, §3
Procedure for I46A: as §1, §2, §3
Procedure for P44A: as §1, §2, §3
Procedure for R37A: as §1, §2, §3
Procedure for R93A: as §1, §2, §3
Procedure for W13A: as §1, §2, §3

B1: hCD27.15-6B (antibody, human IgG4 S228P, kappa, V domains shown)
VH: QVQLVQSGAEVKKPGASVKVSCKASGFIIKATYMHWVRQAPGQRLEWMGRIDPANGETKYDPKFQVRVTITADTSASTAYMELSSLRSEDTAVYYCARYAWYFDVWGQGTLVTVSS
VL: DIQMTQSPSSLSASVGDRVTITCRASENIYSFLAWYQQKPGKAPKLLIYHAKTLAEGVTSRFSGSGSGTDFTLTISSLQPEDSATYYCQHYYGSPLTFGQGTRLEIKR
notes: also called hCD27.15 (humanized 6B); humanized hCD27.15 (human IgG4, Clone 6B)
As to B1, the “binding, WT hCD27 = 100 (GM FITC)” value with D32A worked out at 50.6%; with R37A it was 106%; with W13A, 71.4%; with I46A it was 81.9%; with R93A it was 131%; with G16A, 141%. Further, the “binding, WT hCD27 = 100 (GM FITC)” value with H36A came out at 122%; with P44A, 68.7%; in the experiment with H60A, 82.6%; with E9A, 58.5%.

For the origin of these results see patent publication US20180086841A1 (Merck Sharp & Dohme, published 2018).
